Positions count from the first letter of the chain named.
B1: SEQ ID NO 206 (designed binder)
chain: MLPAPKNLVVSRVTEDSARLSWTAPDAAFDSFDIEYDELWKNGEAIVLTVPGSERSYDLTGLKPGTEYRVFIYGVKGGYGSFPLSAIFTT
notes: FN3 domain
B2: SEQ ID NO 142 (designed binder)
chain: MLPAPKNLVVSRVTKDSARLSWTAPDAAFDSFHIAYEEATTYGEAIFLRVPGSERSYDLTGLKPGTEYEVKIHGVKGGADSKPLVAPFTT
notes: FN3 domain
B3: SEQ ID NO 161 (designed binder)
chain: MLPAPKNLVVSRVTEDSARLSWTAPDAAFDSFTIRYWEELPTGEAIVLTVPGSERSYDLTGLKPGTEYTVEIFGVKGGYLSRPLSAISTT
notes: FN3 domain
B4: SEQ ID NO 191 (designed binder)
chain: MLPAPENLVVSRVTEDSARLSWTAPDAAFDSFEITYEENWRRGEAIVLTVPGSERSYDLTGPKPGTEYIVIIQGVKGGAESWPLSAIFTT
notes: FN3 domain
B5: SEQ ID NO 130 (designed binder)
chain: MLPAPKNLVVSRVTEDSARLSWTAPDAAFDSFHIPYVEAEVPGEAIQLHVPGSERSYDLTGLKPGTEYYVEIWGVKGGFYSPPLIAEFTT
notes: FN3 domain
B6: SEQ ID NO 172 (designed binder)
chain: MLPAPKNLVVSRVTEDSARLSWTAPDAAFDSFPIEYDEWWALGEAITLIVPASERSYDLTGLKPGTEYVVKIHGVKGGQRSYPLIAFFTT
notes: FN3 domain
B7: SEQ ID NO 155 (designed binder)
chain: MLPAPKNLVVSRVTEDSARLSWTAPDAAFDSFPITYRERSQYGEAIVLTVPGSERSYDLTGLKPGTEYVVPIEGVKGGRGSKPLSAIFTT
notes: FN3 domain
B8: SEQ ID NO 173 (designed binder)
chain: MLPAPKNLVVSRVTEDSARLSWTAPDAAFDSFTIHYRELYVQAIVLTVPGSERSYDLTGLKPGTEYLVMIPGVKGGPTSVPLSAIFTT
notes: FN3 domain
B9: SEQ ID NO 113 (designed binder)
chain: MLPAPKNLVVSRVTEDSARLSWTAPDAAFDSFDIHYKEHSWWGEAIVLTVPGSERSYDLTGLKPGTEYIVPIPGVKGGGISRPLSAIFTT
notes: FN3 domain
B10: SEQ ID NO 148 (designed binder)
chain: MLPAPKNLVVSRVTEDSARLSWTAPDAAFDSFHIEYEEQYSTGEAIYLRVPGSERSYDLTGLKPGTEYHVDIEGVKGGRRSFPLNAFFTT
notes: FN3 domain
B11: SEQ ID NO 128 (designed binder)
chain: MLPAPKNLVVSRVTEDSARLSWTAPDAAFDSFIINYIEIVQYGEAIVLTVPGSERSYDLTGLKPGTEYPESIWGVKGGGASSPLSAIFTT
notes: FN3 domain
B12: SEQ ID NO 186 (designed binder)
chain: MLPAPKNLVVSRVTEDSARLSWTAPDAAFDSFFIGYLESAEAIVLTVPGSERSYDLTGLKPGTEYLVTIQGVKGGIASDPLSAIFTT
notes: FN3 domain
B13: SEQ ID NO 126 (designed binder)
chain: MLPAPKNLVVSRVTEDSARLSWTAPDAAFDSFSIDYLELGESGEAIVLTVPGSERSYDLTGLKPGTEYWVYIFGVKGGYPSAPLSAIFTT
notes: FN3 domain
B14: SEQ ID NO 139 (designed binder)
chain: B13 chain with S33D, D35S, L37W, L39S, E41K, S42Y, R55S, W69L, Y71D, A82E
notes: FN3 domain
B15: SEQ ID NO 120 (designed binder)
chain: MLPAPKNLVVSRVTEDSARLSWTAPDAAFDSFRIEYIEWWVGGEAIVLTVPGSERSYDLTGLKPGTEYWVDIKGVKGGKRSYPLSAIFTT
notes: FN3 domain
B16: SEQ ID NO 196 (designed binder)
chain: B15 chain with R33N, E35H, I37V, G42L, W69P, D71Y, K73Y, K79P, R80K, Y82I
notes: FN3 domain
B17: SEQ ID NO 171 (designed binder)
chain: B15 chain with R33A, E35R, I37L, V41D, G42V, W69L, D71E, R80F
notes: FN3 domain
B18: SEQ ID NO 119 (designed binder)
chain: MLPAPKNLVVSRVTEDSARLSWTAPDAAFDSFHIEYEETPQKGEAIFLRVPGSERSYDLTGLKPGTEYVVNIRGVKGGDLSSPLGALFTT
notes: FN3 domain
B19: SEQ ID NO 121 (designed binder)
chain: MLPAPKNLVVSRVTEDSARLSWTAPDAAFDSFSIDYPEFPVRGEAIVLTVPGSERSYDLTGPKPGTEYNVTIQGVKGGFPSMPLSAIFTT
notes: FN3 domain
B20: SEQ ID NO 124 (designed binder)
chain: B19 chain with P62L, N69A, Q73W, P80T, M82Q
notes: FN3 domain
B21: SEQ ID NO 199 (designed binder)
chain: B19 chain with S33G, D35R, P37F, F39W, P40W, V41D, R42L, L59P, P62L
notes: FN3 domain
B22: SEQ ID NO 111 (designed binder)
chain: MLPAPKNLVVSRVTEDSARLSWTAPDAAFDSFWIYYYESVGTGEAIVLTVPGSERSYDLTGLKPGTEYFVDISGVKVGTYSLPLSAIFTT
notes: FN3 domain
B23: SEQ ID NO 157 (designed binder)
chain: B1 chain with D33A, D37Y, L39Y, W40V, K41G, R69Q, F71G, G80Y, F82R
notes: FN3 domain
B24: SEQ ID NO 204 (designed binder)
chain: B22 chain with S21P, Y35S, T42Y, F69Y, V77G, T79V
notes: FN3 domain
B25: SEQ ID NO 143 (designed binder)
chain: MLPAPKNLVVSRVTEDSARLSWTAPDAAFDSFHIAYEEADSEGEAIYLRVPGSERSYDLTGLKPGTEYSVNIQGVKGGIVSFPLHAEFTT
notes: FN3 domain
B26: SEQ ID NO 184 (designed binder)
chain: MLPAPKNLVVSRITEDSARLSWTAPDAAFDSFGIGYYEHKRFGEAIQLSVPGSERSYDLTGLKPGTEYEVDIEGVKGGVLSWPLFAEFTT
notes: FN3 domain
B27: SEQ ID NO 208 (designed binder)
chain: MLPAPKNLVVSRVTEDSARLSWTAPDAAFDSFGIVYREPYVGGEAIVLTVPGSERSYDLTGLKPGTEYGVPIPGVKGGYDSGPLSAIFTT
notes: FN3 domain
B28: SEQ ID NO 189 (designed binder)
chain: MLPAPKNLVVSRVTEDSARLSWTAPDAAFDSFHEWVYFGEAIVLTVPGSERSYDLTGLKPGTEYFVDIWGVKGGTVSKPLSAIFTT
notes: FN3 domain
B29: SEQ ID NO 127 (designed binder)
chain: MLPAPKNLVVSRVTEDSARLSWTAPDAAFDSFPIPYGESPPSGEAIVLTVPGSERSYDLTGLKPGTEYVVIIRGVKGGGRSGPLSAISTT
notes: FN3 domain
B30: SEQ ID NO 129 (designed binder)
chain: MLPAPKNLVVSRVTEDSARLSWTAPDAAFDSFDIEYYEAVGAGEAIVLTVPGSERSYDLTGLKPGTEYTVGIYGVKGGWLSKPLSVIFTT
notes: FN3 domain
B31: SEQ ID NO 203 (designed binder)
chain: B30 chain with F29L, D33R, A39S, V40Y, A42H, T69D, W79Y, L80Y, K82R, V86A
notes: FN3 domain
B32: SEQ ID NO 109 (designed binder)
chain: MLPAPKNLVVSRVTEDSARLSWTAPDAAFDSFHIAYEELVTEGEAIYLRVPGSERSYDLTGLKPGTEYLVDIEGVKGGHLSSPLSAIFTT
notes: FN3 domain
B33: SEQ ID NO 140 (designed binder)
chain: B32 chain with H33W, A35S, L39S, V40D, L69N, D71T, E73Q, H79F, L80P, S82M
notes: FN3 domain
B34: SEQ ID NO 162 (designed binder)
chain: B32 chain with L39A, V40T, E42Y, Y47F, L69D, D71W, H79T, L80I, S82G
notes: FN3 domain
B35: SEQ ID NO 220 (designed binder)
chain: B32 chain with A35I, L39D, V40G, L69E, H79V, S82W, S85F, I87E
notes: FN3 domain
B36: SEQ ID NO 201 (designed binder)
chain: MLPAPKNLVVSRVTEDSARLSWTAPDAAFDSFNIDYWETWVIGEAIVLTVPGSERSYDLTGLKPGTEYEVIIPGVKGGTISPPLSAIFTT
notes: FN3 domain
B37: SEQ ID NO 153 (designed binder)
chain: MLPAPKNLVVSRVTEDSARLSWTAPDAALDSFRIAYTEYFVGGEAIVLTVPGSERSYDLTGLKPGTEYGVGIYGVKGGAGSSPLSAIFTT
notes: FN3 domain

Assays:
[1] = target: T1, recombinant biotinylated CD71 extracellular domain (Sino Biologics) with an N-terminal 6His tag (human, UniProt P02786 89-760, biotinylated (sites not given)); test: screening ELISA
T1 construct: extracellular domain; also called hCD71; huCD71
T1 sequence (P02786 other isoform, or with tags, fused parts or gaps): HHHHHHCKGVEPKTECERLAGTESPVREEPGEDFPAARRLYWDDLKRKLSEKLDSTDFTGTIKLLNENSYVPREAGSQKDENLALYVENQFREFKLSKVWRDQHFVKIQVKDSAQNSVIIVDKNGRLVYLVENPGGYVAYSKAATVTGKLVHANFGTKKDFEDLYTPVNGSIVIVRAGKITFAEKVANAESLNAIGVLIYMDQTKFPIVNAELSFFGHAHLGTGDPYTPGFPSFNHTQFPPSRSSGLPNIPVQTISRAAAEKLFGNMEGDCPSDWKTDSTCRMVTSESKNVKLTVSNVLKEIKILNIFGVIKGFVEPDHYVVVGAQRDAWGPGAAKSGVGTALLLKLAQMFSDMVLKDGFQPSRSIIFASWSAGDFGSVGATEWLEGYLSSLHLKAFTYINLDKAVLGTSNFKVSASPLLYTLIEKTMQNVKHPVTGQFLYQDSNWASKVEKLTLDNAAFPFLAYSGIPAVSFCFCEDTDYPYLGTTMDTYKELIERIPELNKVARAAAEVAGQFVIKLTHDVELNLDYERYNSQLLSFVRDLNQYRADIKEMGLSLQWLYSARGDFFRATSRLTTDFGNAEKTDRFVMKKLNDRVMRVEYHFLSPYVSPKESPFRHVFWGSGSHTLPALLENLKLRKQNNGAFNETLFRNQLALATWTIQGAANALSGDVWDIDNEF

[2] = target: T1, recombinant biotinylated CD71 …; test: screening ELISA, ratio

| Binder | hCD71 [1] | hCD71:HSA [2] |
| --- | --- | --- |
| B1 | 833000 | 314 |
| B2 | 3.41e+06 | 1000 |
| B3 | 1.21e+06 | 240 |
| B4 | 1.47e+06 | 43 |
| B5 | 1.45e+06 | 239 |
| B6 | 4.31e+06 | 1160 |
| B7 | 1.84e+06 | 71 |
| B8 | 979000 | 47 |
| B9 | 2.14e+06 | 95 |
| B10 | 3.98e+06 | 1990 |
| B11 | 664000 | 204 |
| B12 | 2.02e+06 | 1090 |
| B13 | 4.49e+06 | 2570 |
| B14 | 3.03e+06 | 1440 |
| B15 | 3.64e+06 | 1970 |
| B16 | 1.72e+06 | 50 |
| B17 | 3.72e+06 | 1960 |
| B18 | 3.16e+06 | 1710 |
| B19 | 2.37e+06 | 83 |

| Binder | hCD71 [1] | hCD71:HSA [2] |
| --- | --- | --- |
| B20 | 605000 | 175 |
| B21 | 1.46e+06 | 101 |
| B22 | 2.4e+06 | 322 |
| B23 | 2.66e+06 | 1080 |
| B24 | 2.77e+06 | 113 |
| B25 | 3.94e+06 | 426 |
| B26 | 470000 | 235 |
| B27 | 2.29e+06 | 49 |
| B28 | 1.96e+06 | 29 |
| B29 | 3.56e+06 | 38 |
| B30 | 2.31e+06 | 1540 |
| B31 | 3.38e+06 | 1020 |
| B32 | 4.83e+06 | 3860 |
| B33 | 4.18e+06 | 2610 |
| B34 | 3.88e+06 | 2100 |
| B35 | 4.25e+06 | 452 |
| B36 | 1.2e+06 | 106 |
| B37 | 957000 | 73 |
